From publication PMC2921341, “Interaction of Serum- and Glucocorticoid Regulated Kinase 1 (SGK1) with the WW-Domains of Nedd4-2 Is Required for Epithelial Sodium Channel Regulation” (PLoS ONE, 2010)
pKd: −log10 of the molar value.

Assays:
[1] = molecular target: βENaC PY motif peptide (Homo sapiens) (UniProt P51168); settings: cited from earlier work
[2] = molecular target: SGK PY-motif peptide (human); assay: SPR; BIAcore 2000; peptide immobilised on Sensor Chip CM5 by amine chemistry; isolated WW-domains injected at 20 µl/min in HBS-EP; KD estimated from steady state equilibrium responses
[3] = molecular target: βhENaC PY-motif peptide (human); assay: as above

Chain of Nedd4 WW2-4 (P46934 767-925): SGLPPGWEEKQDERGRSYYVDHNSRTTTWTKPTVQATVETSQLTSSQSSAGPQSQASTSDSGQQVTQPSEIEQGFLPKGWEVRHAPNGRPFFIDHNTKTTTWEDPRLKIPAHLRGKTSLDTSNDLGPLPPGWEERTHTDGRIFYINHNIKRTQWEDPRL

Row | pKd [2] | pKd [3] | Substance | pKd [1]
1 | – | – | Nedd4 WW2-4 (from UniProt P46934) | 4.19
2 | 3.60 | 4.95 | Nedd4-2 WW3 (isolated WW-domain, GST removed) (domain or fragment) | –
